{"source": "patent US5149780A", "about": "“Peptides and antibodies that inhibit integrin-ligand binding” (The Scripps Research Institute, priority 1988, dated 1992)", "key": {"beta subunit (GPIIIa)": {"target": "T1, beta subunit (GPIIIa) (Homo sapiens, UniProt P05106+P08514)", "T1 construct": "endogenous in cells; host or cells: human platelets (thrombin-stimulated or nonstimulated), gel-filtered from fresh blood", "assay": "Chemical crosslinking of 125I-Fn-7 to platelets with BS3, SDS-PAGE and autoradiography", "type": "binding", "settings": "thrombin-stimulated platelets, 20 μM peptide, 45 min at 22° C., BS3 0.2 mM", "procedure": "FIG. 2 illustrates the results of the crosslinking of an RGD peptide to discrete sites in the beta subunit (GPIIIa) of an Integrin adhesion receptor. The ^125 I-labeled RGD peptide, Fn-7 (20 μM), was bound to platelet (6×10^8 /ml) for 45 min at 22° C., and crosslinked with BS^3 (0.2 mM). The fragmentation patterns after proteolysis were analyzed by SDS-PAGE [Laemmli, Nature. 227:680 (1970)] and autoradiography. […] Lanes 2-7, GPIIIa:Fn-7 bands were excised from gels, subjected to proteolysis and then analyzed by SDS-PAGE (15% gels, reducing conditions). For lanes 2-5, GPIIIA:Fn-7 bands were excised and digestions with V-8 protease were performed within the gel slices as described in Cleveland et al., J. Biol. Chem. 252:1102 (1977).\nPlatelets were isolated from fresh human blood collected into acid/citrate/dextrose by differential centrifugation followed by gel filtration on Sepharose 2B in divalent ion-free Tyrode's buffer, pH 7.3, containing 0.1% bovine serum albumin. See, Marguerie et al., J. Biol. Chem. 225:154-161 (1980). […]\nThe cell-bound ligand was recovered by centrifugation through 20% sucrose, and the cells were extracted in PBS containing 1% Nonidet P40 and 10 mM N-ethylmaleimide (Sigma). […] The cross-linked samples were analyzed by electrophoresis (SDS-PAGE) on polyacrylamide vertical slab gels in the buffer system of Laemmli, Nature, […] (1970). […]"}, "alpha subunit (GPIIb)": {"target": "T2, alpha subunit (GPIIb) (Homo sapiens, UniProt P05106+P08514)", "T2 construct": "The radiolabeled peptide was then added to 6×10^8 cells/ml stimulated or nonstimulated platelets; endogenous in cells; host or cells: human platelets (thrombin-stimulated), gel-filtered from fresh blood", "assay": "Chemical crosslinking of 125I-Fn-7 to platelets with BS3, SDS-PAGE and autoradiography", "type": "binding", "settings": "thrombin-stimulated platelets, 20 μM peptide, 45 min at 22° C., BS3 0.2 mM"}}, "data": [{"sequence": "KYGRRGDS [Fn-7, RGD-peptide with a lysine to facilitate crosslinking and a tyrosine for radioiodination]", "values": [{"measurement": "crosslinking of 125I-Fn-7 to the beta subunit (GPIIIa)", "setting": "beta subunit (GPIIIa)", "value": "predominance"}, {"measurement": "crosslinking of 125I-Fn-7 to the alpha subunit (GPIIb)", "setting": "alpha subunit (GPIIb)", "value": "more minor crosslinking"}]}]}
